# Source: the supplement of paper PMC10567573
# ± gives the standard deviation.
# Experiment: protein stability index of a GFP-peptide fusion (GPS, HEK-293T) (PSI 1-6); higher = more stable
# [1] = treatment: DMSO, c terminus: a fixed tail appended
# [2] = treatment: MLN4924 1 uM, 8 h, c terminus: a fixed tail appended
# 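Note: 24-mer peptide tiles fused after GFP, lentivirally expressed, FACS-sorted into six equal bins by GFP/DsRed ratio, decoded by Illumina sequencing, PSI is the read-weighted mean bin number.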
sequence,measurement,setting,value
TLPYPVKIKVRFSFFLQIYLIMIF [HACD3],protein stability index,[1],2.86 ± 0.94
same,protein stability index,[2],2.84 ± 0.72
LHYQDTDSDVPEQRDSKCKVKWTH [MYBL2],protein stability index,[1],3.77 ± 0.32
same,protein stability index,[2],4.05 ± 0.19
GAAQEALSIQLQPKETQPFPKSEQ [ZNF232],protein stability index,[1],5.17 ± 0.25
same,protein stability index,[2],5.22 ± 0.23
QQFVIAGVLVEDSNNHHLMLEASE [ZBED1],protein stability index,[1],3.5 ± 0.36
same,protein stability index,[2],3.57 ± 0.43
DICLAQLEELGTLNVFQTVSRMRT [PTPN9],protein stability index,[1],2.97 ± 0.22
same,protein stability index,[2],2.79 ± 0.33
DDGSQDPEVLDRESRDRPSCAPSA [PWWP2B],protein stability index,[1],5.43 ± 0.17
same,protein stability index,[2],5.21 ± 0.13
EYLSFFDFSGLTLDGALRTFLKAF [PSD2],protein stability index,[1],2.44 ± 0.31
same,protein stability index,[2],2.01 ± 0.34
SMPSYSSCTVTTVQPMDRLPYQHF [TBX5],protein stability index,[1],2.56 ± 0.3
same,protein stability index,[2],2.64 ± 0.17
TPLTFTKVSEGQADIMISFVRGDH [MMP1],protein stability index,[1],2.64 ± 0.28
same,protein stability index,[2],2.65 ± 0.26
KRNKRNPIFQDSQDTEVFSWSDNE [FAM104B],protein stability index,[1],4.46 ± 0.21
same,protein stability index,[2],4.58 ± 0.22
KMIGFPSSAGSVSPRSTSVTTTSS [KRT13],protein stability index,[1],4.4 ± 0.067
same,protein stability index,[2],4.16 ± 0.096
CIHDHHCGSQLSSTKGSRSNLSTR [NETO1],protein stability index,[1],3.04 ± 0.52
same,protein stability index,[2],3.33 ± 0.37
QTLRQELSLPYLPSGTPELEVPKP [CHIT1],protein stability index,[1],4.7 ± 0.15
same,protein stability index,[2],4.69 ± 0.36
NLLQYVRMPLLTPRYITDVIDAEP [KLHL12],protein stability index,[1],2.29 ± 0.45
same,protein stability index,[2],2.33 ± 0.26
YSLTTSSTHKRSSLRKVKLVRPPQ [RAB40B],protein stability index,[1],3.42 ± 0.24
same,protein stability index,[2],3.63 ± 0.32
YESEILPSTPNPQPPSCQGEAAGS [DUSP5],protein stability index,[1],5.24 ± 0.13
same,protein stability index,[2],5.296 ± 0.002
EAIKGLNGQKPLGAAEPITVKFAN [ELAVL3],protein stability index,[1],3.94 ± 0.22
same,protein stability index,[2],4.06 ± 0.28
TLPVSGNLLDVYSSQGVATPAITV [TFE3],protein stability index,[1],2.58 ± 0.24
same,protein stability index,[2],2.73 ± 0.27
VAVESMEPNNIVVLLQTSPYHVDS [TCF25],protein stability index,[1],2.28 ± 0.38
same,protein stability index,[2],2.13 ± 0.4
SQKDLENDPSVNSQAQETTIIASN [TOR1AIP2],protein stability index,[1],5.37 ± 0.16
same,protein stability index,[2],5.28 ± 0.29
LFIILQVGLNTIADLWYLFGDLSL [POMT2],protein stability index,[1],3.06 ± 0.84
same,protein stability index,[2],3.17 ± 0.064
EKEYKTYKENFLKRFQLTKLPPYL [USP39],protein stability index,[1],2.5 ± 0.17
same,protein stability index,[2],2.93 ± 0.28
GLQSPGTLQPPEFLYSHGVPRTLS [TBX5],protein stability index,[1],3.32 ± 0.27
same,protein stability index,[2],3.49 ± 0.36
EVIEKPENDPEWWKCKNARGQVGL [NCK2],protein stability index,[1],4.28 ± 0.31
same,protein stability index,[2],4.368 ± 0.038
LSVLQIAQQDLAPDPDAWLRALGE [FANCE],protein stability index,[1],2.81 ± 0.39
same,protein stability index,[2],2.75 ± 0.3
RGPPPRSGGPPPKRSAPSGPVRSS [RBMX],protein stability index,[1],4.4 ± 0.2
same,protein stability index,[2],4.56 ± 0.086
KYLKPSGNMFPTIGDVHLAPFTDE [CARM1],protein stability index,[1],3.69 ± 0.1
same,protein stability index,[2],3.61 ± 0.37
PCAAAREGRLERRECGLAAPRFSF [IRX6],protein stability index,[1],3.01 ± 0.21
same,protein stability index,[2],2.89 ± 0.4
TDLEMQIESLNEELAYMKKNHEEE [KRT13],protein stability index,[1],5.4 ± 0.16
same,protein stability index,[2],5.433 ± 0.051
NGFTPLHFAAASTHGALCLELLVN [ANKRD44],protein stability index,[1],3.06 ± 0.71
same,protein stability index,[2],2.95 ± 0.9
LQLKETLATQEPTDNQVRLRKRKE [DLC1],protein stability index,[1],5.18 ± 0.3
same,protein stability index,[2],5.32 ± 0.24
CGVILYILLVGYPPFWDEDQHRLY [CAMK2A],protein stability index,[1],2.98 ± 0.6
same,protein stability index,[2],3.24 ± 0.91
LSLLGKLTISAAFNIVYIYTSELY [SLC22A15],protein stability index,[1],3.31 ± 0.21
same,protein stability index,[2],3.25 ± 0.28
TQPTHGQFALTNGDPLNCHSYLSG [NR2F2],protein stability index,[1],3.69 ± 0.17
same,protein stability index,[2],3.87 ± 0.23
DFGACDGGLLTGNEKITMQNLNDR [KRT13],protein stability index,[1],4.57 ± 0.33
same,protein stability index,[2],4.53 ± 0.37
QGMEGIKVFLHERELWLKFHEVGT [TBX5],protein stability index,[1],2.2 ± 0.14
same,protein stability index,[2],2.17 ± 0.23
DKDRRFVFSYFLATDMISIFEPPV [EFHC1],protein stability index,[1],2.38 ± 0.47
same,protein stability index,[2],2.72 ± 0.61
ARAFAEKNGLSFIETSALDSTNVE [RAB11A],protein stability index,[1],4.28 ± 0.41
same,protein stability index,[2],4.24 ± 0.44
CEEQKCEEEVFPLAMNYLDRFLAG [CCND2],protein stability index,[1],3.82 ± 0.17
same,protein stability index,[2],4.05 ± 0.28
CPRPCRESAFKLSTGTSRWPSAKS [SCNN1D],protein stability index,[1],2.7 ± 0.62
same,protein stability index,[2],2.65 ± 0.45
LLCGAAFGRLVANVLKSYIGLGHI [CLCN6],protein stability index,[1],2.66 ± 0.42
same,protein stability index,[2],3.14 ± 0.46
GLVYRIHSVLQGFIPLFQKFRLTG [TMEM40],protein stability index,[1],3.03 ± 0.56
same,protein stability index,[2],2.73 ± 0.37
AYEFADRDEVRFFKGNKYWAVQGQ [MMP1],protein stability index,[1],2.54 ± 0.45
same,protein stability index,[2],2.74 ± 0.61
QPRLSYAEMAEDYPRYPDIHDLDL [CLCN6],protein stability index,[1],4.14 ± 0.27
same,protein stability index,[2],4.24 ± 0.14
PPARGTLKTSNLPEELRKVFITYS [TRAF3IP2],protein stability index,[1],2.53 ± 0.37
same,protein stability index,[2],2.53 ± 0.12
ERNRMHGLNDALDNLRKVVPCYSK [NEUROD6],protein stability index,[1],2.75 ± 0.47
same,protein stability index,[2],3.02 ± 0.32
QEQNGRLQAELAAQEALREKAAAL [LRRC45],protein stability index,[1],5.25 ± 0.21
same,protein stability index,[2],5.31 ± 0.28
MNPYNAVLTKKFQVTMRGLLSCLS [FBXO39],protein stability index,[1],2.7 ± 0.75
same,protein stability index,[2],2.72 ± 0.23
AQLYTLWVTFQVLLYTSLPDFCHK [DHCR7],protein stability index,[1],2.88 ± 0.13
same,protein stability index,[2],3.13 ± 0.18
RGEVLPEEITEESLEESVGKPLYL [INTS3],protein stability index,[1],5.17 ± 0.38
same,protein stability index,[2],5.08 ± 0.35
GLEGLEDAPPVELQLLHECSPSQM [FANCE],protein stability index,[1],4.77 ± 0.19
same,protein stability index,[2],4.66 ± 0.12
QGQAAAPASGSGADSEPARHIFSF [TRIM55],protein stability index,[1],3.76 ± 0.27
same,protein stability index,[2],3.79 ± 0.3
RDLKTQNILLDKHRMVVKIGDFGI [NEK8],protein stability index,[1],2.24 ± 0.18
same,protein stability index,[2],2.24 ± 0.16
VTEFILLGLTQNPEGQKVLFVTFL [OR4A15],protein stability index,[1],2.96 ± 0.44
same,protein stability index,[2],3.27 ± 0.29
HSYLSGYISLLLRAEPYPTSRFGS [NR2F2],protein stability index,[1],3.06 ± 0.33
same,protein stability index,[2],2.85 ± 0.2
HFSRLCGPESPPPPYSRLSPRDEY [SMAD6],protein stability index,[1],3.42 ± 0.07
same,protein stability index,[2],3.56 ± 0.17
LATTEKKTEQQRRREKAVHRLRVQ [NOP53],protein stability index,[1],4.34 ± 0.19
same,protein stability index,[2],4.37 ± 0.17
VPKVGQRFNRIGLPPKVGSFQLFV [PI4K2A],protein stability index,[1],2.31 ± 0.78
same,protein stability index,[2],2.34 ± 0.44
NIIDIYKQESTRPEKKSDQPMCEE [TRIM55],protein stability index,[1],5.05 ± 0.26
same,protein stability index,[2],5.02 ± 0.052
SFFAAQAGARKIYAVEASTMAQHA [CARM1],protein stability index,[1],2.8 ± 0.45
same,protein stability index,[2],2.78 ± 0.69
ESGPSAEKYSVATQLFIGGVTGWC [FUNDC2],protein stability index,[1],2.14 ± 0.29
same,protein stability index,[2],1.97 ± 0.38
SNPGVDFGDVSERLALRQRLKCRS [GALNT9],protein stability index,[1],4.43 ± 0.1
same,protein stability index,[2],4.56 ± 0.17
GIVVESNHDSHMAKERAHSTASHS [PDZK1],protein stability index,[2],4.44 ± 0.21
ESRYTSDYFISYGIEHAQCVPPSE [ETS1],protein stability index,[1],3.22 ± 0.29
same,protein stability index,[2],3.5 ± 0.53
TTNVKSASRQKTSLGIELHCNVSN [ZNF396],protein stability index,[1],3.39 ± 0.29
same,protein stability index,[2],3.82 ± 0.31
GESYESCCPTSREAAVEALELLGA [FEM1A],protein stability index,[1],4.58 ± 0.12
same,protein stability index,[2],4.66 ± 0.2
DYEAGQHMEDPRRAGKMLMTLPLL [ESRRG],protein stability index,[1],3.56 ± 0.29
same,protein stability index,[2],3.52 ± 0.15
MMRGLSYSLTTSSTHKSSLCKVEI [RAB40A],protein stability index,[1],2.31 ± 0.59
same,protein stability index,[2],2.28 ± 0.46
VAVNGESVETLDHDSVVEMIRKGG [PDZK1],protein stability index,[1],4.61 ± 0.27
same,protein stability index,[2],4.59 ± 0.24
YDLWASDNPLDRPLVGQDEFFLEQ [NOP53],protein stability index,[1],4.31 ± 0.13
same,protein stability index,[2],3.69 ± 0.43
PAPEAESKQTEKDPGVQELEALID [EFHC1],protein stability index,[1],5.51 ± 0.2
same,protein stability index,[2],5.57 ± 0.17
DESQISAEEAEDHGRIPDPDDFVP [FAM189A2],protein stability index,[1],5.6 ± 0.2
same,protein stability index,[2],5.61 ± 0.15
YVKYQVAIHQDPPDECGKTEFTRF [ATE1],protein stability index,[1],2.4 ± 0.2
same,protein stability index,[2],2.56 ± 0.5
KDSYSSRDYPSSRDTRDYAPPPRD [RBMX],protein stability index,[1],4.08 ± 0.24
same,protein stability index,[2],4.09 ± 0.6
QLEKPPEKEEDHAPEFIKVRENLR [FAM107A],protein stability index,[1],5.29 ± 0.23
same,protein stability index,[2],5.32 ± 0.16
ILKHTPKEHPDVQLLEDAILIIQG [NET1],protein stability index,[1],2.12 ± 0.27
same,protein stability index,[2],1.99 ± 0.35
KSKVVGDRENGSDNLPSSAGSGDK [TPD52L2],protein stability index,[1],5.39 ± 0.1
same,protein stability index,[2],5.55 ± 0.16
FLVMKGQEGAASKVLGRLRALSDT [SLC2A12],protein stability index,[1],2.27 ± 0.45
same,protein stability index,[2],2.44 ± 0.39
EQPRLEFLMRKCGWFVRELRVEFA [FBXO33],protein stability index,[1],2.64 ± 0.34
same,protein stability index,[2],2.12 ± 0.24
HWRECLFYPALWPQLRICLRVSPA [FBXO33],protein stability index,[1],2.42 ± 1.1
same,protein stability index,[2],2.61 ± 0.78
LLVVGGFGSQQSPIDVVEKYDPKT [KLHL12],protein stability index,[1],3 ± 0.55
same,protein stability index,[2],3.61 ± 0.33
KSLEGDLEDLKDQIAQLEASLAAA [LMNB1],protein stability index,[1],4.48 ± 0.23
same,protein stability index,[2],4.23 ± 0.44
QKVDQFDPFTVPTISFICRELDAI [PRIM1],protein stability index,[1],2.2 ± 0.24
same,protein stability index,[2],2.31 ± 0.33
IPRENAQISLDGDVTFFGALKLL [TNFSF13B],protein stability index,"treatment: DMSO, c terminus: native",2.71 ± 0.24
same,protein stability index,"treatment: MLN4924 1 uM, 8 h, c terminus: native",2.73 ± 0.46
CDKYPHESQLPEEWENNRESLIVF [CPXM2],protein stability index,[1],3.68 ± 0.11
same,protein stability index,[2],3.44 ± 0.25
LREIVHKPGPITLTVAKCWDPSPR [DVL3],protein stability index,[1],2.8 ± 0.28
same,protein stability index,[2],2.93 ± 0.32
SVNEVDFEGRTPMHVACQHGQENI [RIPK4],protein stability index,[1],4.31 ± 0.27
same,protein stability index,[2],4.57 ± 0.076
QSKPLLSAFADIIHSLKESGQLWL [FADS1],protein stability index,[1],2.8 ± 0.4
same,protein stability index,[2],2.87 ± 0.68
TFGPIPEFSRATAEKVNQDMCMKV [CRYL1],protein stability index,[1],3.9 ± 0.25
same,protein stability index,[2],3.94 ± 0.17
